IntAct's records for PubMed 21245303

B1: Segment polarity protein dishevelled homolog DVL-2 (Homo sapiens), O14641 (parent)
chain: MAGSSTGGGGVGETKVIYHLDEEETPYLVKIPVPAERITLGDFKSVLQRPAGAKYFFKSMDQDFGVVKEEISDDNARLPCFNGRVVSWLVSSDNPQPEMAPPVHEPRAELAPPAPPLPPLPPERTSGIGDSRPPSFHPNVSSSHENLEPETETESVVSLRRERPRRRDSSEHGAGGHRTGGPSRLERHLAGYESSSTLMTSELESTSLGDSDEEDTMSRFSSSTEQSSASRLLKRHRRRRKQRPPRLERTSSFSSVTDSTMSLNIITVTLNMEKYNFLGISIVGQSNERGDGGIYIGSIMKGGAVAADGRIEPGDMLLQVNDMNFENMSNDDAVRVLRDIVHKPGPIVLTVAKCWDPSPQAYFTLPRNEPIQPIDPAAWVSHSAALTGTFPAYPGSSSMSTITSGSSLPDGCEGRGLSVHTDMASVTKAMAAPESGLEVRDRMWLKITIPNAFLGSDVVDWLYHHVEGFPERREARKYASGLLKAGLIRHTVNKITFSEQCYYVFGDLSGGCESYLVNLSLNDNDGSSGASDQDTLAPLPGATPWPLLPTFSYQYPAPHPYSPQPPPYHELSSYTYGGGSASSQHSEGSRSSGSTRSDGGAGRTGRPEERAPESKSGSGSESEPSSRGGSLRRGGEASGTSDGGPPPSRGSTGGAPNLRAHPGLHPYGPPPGMALPYNPMMVVMMPPPPPPVPPAVQPPGAPPVRDLGSVPPELTASRQSFHMAMGNPSEFFVDVM

Variants of: B1
Details: with axin1_human AXIN1, O15169
axin1_human AXIN1, O15169, sequence (O15169 whole entry): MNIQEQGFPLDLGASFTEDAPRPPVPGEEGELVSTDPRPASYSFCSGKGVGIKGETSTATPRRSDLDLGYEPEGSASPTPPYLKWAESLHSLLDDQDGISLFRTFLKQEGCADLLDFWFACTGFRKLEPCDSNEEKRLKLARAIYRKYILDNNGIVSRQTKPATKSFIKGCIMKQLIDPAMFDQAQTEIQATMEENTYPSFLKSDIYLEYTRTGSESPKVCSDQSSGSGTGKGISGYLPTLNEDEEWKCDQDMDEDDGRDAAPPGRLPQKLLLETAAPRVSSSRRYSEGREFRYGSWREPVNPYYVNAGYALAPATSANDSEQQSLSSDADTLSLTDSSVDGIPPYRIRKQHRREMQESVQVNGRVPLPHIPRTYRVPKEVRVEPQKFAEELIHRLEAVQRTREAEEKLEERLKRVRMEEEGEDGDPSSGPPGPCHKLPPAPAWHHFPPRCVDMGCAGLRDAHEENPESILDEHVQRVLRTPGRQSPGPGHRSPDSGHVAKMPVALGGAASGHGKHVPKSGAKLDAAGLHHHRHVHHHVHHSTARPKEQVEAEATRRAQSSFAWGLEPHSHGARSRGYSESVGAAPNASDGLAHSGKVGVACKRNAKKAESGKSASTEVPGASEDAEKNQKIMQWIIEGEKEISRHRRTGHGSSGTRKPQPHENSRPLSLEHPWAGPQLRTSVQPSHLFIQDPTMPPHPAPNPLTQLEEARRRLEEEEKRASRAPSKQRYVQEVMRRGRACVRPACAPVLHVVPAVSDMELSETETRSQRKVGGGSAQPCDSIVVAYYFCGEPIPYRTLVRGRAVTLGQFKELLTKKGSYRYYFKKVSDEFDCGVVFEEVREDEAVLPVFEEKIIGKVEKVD
For Y27D, the “effect of a mutation on the interaction” value was “disrupting interaction strength”.
